Measured values published in publication PMC5065529, “Wnt Signalosome Assembly by DEP Domain Swapping of Dishevelled” (Molecular Cell, 2016).
Residue numbers refer to the chain shown, from its start. Where “and” joins values, the source holds several entries; their conditions need not be identical. Equal values may be shown once. Blank lines part the entries; values can stand above or below the molecule they belong to.

Columns and labels:
[1] = molecular target: DEP_(414–507)-GFP, minimal DEP domain of DVL2 (UniProt O14641); test: FZD5-dependent PM recruitment of DEP-GFP (cell scoring); conditions: 100 cells scored in each case, label printed as 'T526A:S529', new residue at 529 not given, read off a plot
[2] = molecular target: the molecule itself; test: SEC-MALS; purified Lip-DEP_(416–511), WT or mutant, unfractionated or purified fractions; PBS, GE Superdex S-200 10/300 analytical column

other: % of cells with strong PM recruitment ([1]; parent: est. 52): 3 % of cells
other: % of cells with strong or weak PM recruitment (top of weak segment) ([1]; parent: est. 88): 24 % of cells
Molecule: SNAP-FZD5 (Frizzled 5), wild type (from UniProt Q13467) T526A:S529

B1: Lip-DEP_(416–511) L445E (domain or fragment, human, UniProt O14641 416-511, looked up)
chain: GLSVHTDMASVTKAMAAPESGLEVRDRMWEKITIPNAFLGSDVVDWLYHHVEGFPERREARKYASGLLKAGLIRHTVNKITFSEQCYYVFGDLSGG
notes: Dishevelled 2 (DVL2), human, DEP domain, residues 416-511; source: E. coli BL21-CodonPlus(DE3)-RIL, purified
binding result [2]: binds

B2: Lip-DEP_(416–511) MLI > AAA (domain or fragment, human, UniProt O14641 416-511, looked up)
chain: B1 chain with M28A, E30A, I32A
notes: Dishevelled 2 (DVL2), human, DEP domain, residues 416-511; the hydrophobic triad M443, L445, I447 changed to alanines; also called triple-alanine mutation of the hydrophobic triad; source: E. coli BL21-CodonPlus(DE3)-RIL, purified
binding result [2]: binds

B3: Lip-DEP_(416–511), lipoyl-tagged DEP domain of DVL2 (domain or fragment, human, UniProt O14641 416-511, looked up)
chain: B1 chain with E30L
notes: Dishevelled 2 (DVL2), human, DEP domain, residues 416-511; Purified essentially as in Fiedler et al., 2011; details in the Supplemental Information; also called purified DEP; wt; source: E. coli BL21-CodonPlus(DE3)-RIL, purified (SEC)
stoichiometry N [2]: 2 and 4
